Measured values published in PMC12416549 (2024).

Experiments:
Test in all cases: SPR
TNFR2 = target: T1, TNFR2 (UniProt P20333 23-212)
T1 chain: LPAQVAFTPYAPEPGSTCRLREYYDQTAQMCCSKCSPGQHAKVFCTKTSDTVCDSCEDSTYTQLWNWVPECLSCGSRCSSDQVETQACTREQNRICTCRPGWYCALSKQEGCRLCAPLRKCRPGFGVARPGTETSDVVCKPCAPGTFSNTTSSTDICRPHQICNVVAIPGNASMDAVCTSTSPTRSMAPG

OX40_mb1 = target: OX40_mb1
TNFR1_mb2 = target: TNFR1_mb2
TNFR1_mb1 = target: TNFR1_mb1

B1: TNFR2_mb1 (designed binder)
chain: LNPEQVAKIGAAIDAGRKYLDAKIEEAKKTLTLRTAQALLVIRSQYERAVDTLFTDPSAAEKELAATLATIDRLLKEHPELAAEIKAFIRSTMAEIRALLAASLAA
koff (TNFR2): 0.00277 s⁻¹

B2: OX40 (protein)
chain: LHCVGDTYPSNDRCCHECRPGNGMVSRCSRSQNTVCRPCGPGFYNDVVSSKPCKPCTWCNLRSGSERKQLCTATQDTVCRCRAGTQPLDSYKPGVDCAPCPPGHFSPGDNQACKPWTNCTLAGKHTLQPASNSSDAICEDRDPPATQPQETQGPPARPITVQPTEAWPRTSQGPSTRPVEVPGGRA
Kd (OX40_mb1): 30 nM
koff (OX40_mb1): 0.033 s⁻¹

B3: TNFR1 (protein)
chain: LVPHLGDREKRDSVCPQGKYIHPQNNSICCTKCHKGTYLYNDCPGPGQDTDCRECESGSFTASENHLRHCLSCSKCRKEMGQVEISSCTVDRDTVCGCRKNQYRHYWSENLFQCFNCSLCLNGTVHLSCQEKQNTVCTCHAGFFLRENECVSCSNCKKSLECTKLCLPQIENVKGTEDSGTT
Kd (TNFR1_mb2): 24.5 nM
koff (TNFR1_mb2): 0.0773 s⁻¹
Kd (TNFR1_mb1): 29 nM
koff (TNFR1_mb1): 0.134 s⁻¹
